Measured values taken from patent publication KR20210118351A (dated 2021).

B1: No. 152 항체 (Full IgG) (antibody, V domains shown)
VH: QITLKESGPSLVKPSQTLTLTCTFSGFSLTTSGMGVGWIRQPPGKALEWLALIDWDDNKYYTTSLKTRLTISKDTSKNQVVLTMTNMDPVDTATYYCARIPGFLRYRNRYYYYGMDVWGQGTTVTVSS
VL: ELVLTQPPSVSAAPGQKVTISCSGRSSNIGNNYVSWYQQLPGTAPKLLIYDNNKRPSGIPDRFSGSKSGTSATLGITGLQTGDEADYYCGTWDSSLSAGVFGGGTQLTVL
B2: No. 284 항체 (Full IgG) (antibody, V domains shown)
VH: QVQLVQSGGGLVQPGGSLRLSCAASGVTVSSNYMSWVRQAPGKGLEWVSVIYSGGSTYYADSVKGRFTISRHNSKNTLYLQMNSLRAEDTAVYYCARGHVDIPYGMDVWGQGTTVTVSS
VL: ELVLTQPPSVSAAPGQKVTISCSGSSSNIGNNYVSWYQQLPGTAPKLLIYDNNKRPSGIPDRFSGSKSGTSATLGITGLQTGDEADYYCGTWDSSLSAGVFGGGTQLTVL
B3: No. 260 항체 (Full IgG) (antibody, V domains shown)
VH: EVQLVESGGGLVQPGRTLRLSCAASGFTFDDYAMHWVRQPPGKGLEWVSGIDWNSGLIGYADAVKGRFTLSRDNAKNSIFLQMNSLRAEDTALYYCVKDMGSTGGYYGMDVWGQGTTVIVSS
VL: not shown
B4: No. 270 항체 (Full IgG) (antibody, V domains shown)
VH: QVQLVQSGGGLVQPGGSLRLSCAASGLTVSSNYMTWVRQAPGKGLEWVSVIYSGGSTFYADSVKGRFTISRDNSKNTLYLQMNSLRAEDTAVYYCARDLVVYGMDVWGQGTTVTVSS
VL: ELVLTQSPGTLSLSPGERATLSCRASQSVSSYLAWYQQKPGQAPRLLIYDASNRATGIPARFSGSGSGTDFTLTISSLEPEDFAVYYCQQYGSSPLTFGGGTKVDIK
B5: No. 274 항체 (Full IgG) (antibody, V domains shown)
VH: EVQLVESGGGLVQPGGSLRLSCAASGFTVSSNYMTWVRQAPGKGLEWVSVIYSGGSTFYADSVKGRFTISRDNSKNTLYLQMNSLRAEDTAVYYCARDLVVYGMDVWGQGTTVTVSS
VL: ELELTQPPSVSGAPGQRVTISCTGSSSNIGAGYDVHWYQQLPGTAPKLLIYGNSNRPSGVPDRFSGSKSGTSASLAITGLQAEDEADYYCQSYDSSLGVVFGGGTKVTVL
B6: No. 271 항체 (Full IgG) (antibody, V domains shown)
VH: EVQLVESGGGLVQPGGSLRLSCAASGFTVSSNYMTWVRQAPGKGLEWVSVIYSGGSTFYADSVKGRFTISRDNSKNTLYLQMNSLRAEDTAVYYCARDLVVYGMDVWGQGTTVTVSS
VL: ELELTQPPSASGTPGQRVTISCSGSSSNIGSNTVNWYQQLPGTAPKLLIYSNNQRPSGVPDRFSGSKSGTSASLAISGLQSEDEADYYCSSYAGSNNLVFGGGTKLTVL
B7: No. 275 항체 (Full IgG) (antibody, V domains shown)
VH: EVQLVESGGGLVQPGGSLRLSCAASGFTVSSNYMTWVRQAPGKGLEWVSVIYSGGSTFYADSVKGRFTISRDNSKNTLYLQMNSLRAEDTAVYYCARDLVVYGMDVWGQGTTVTVSS
VL: ELVLTQPPSVSVAPGKTARITCGGNNIGSNTVNWYQQLPGTAPKLLIYSNNLRPSGVPDRFSGSKSGTSASLAISGLQSEDEADYYCAAWDDSLNGPVFGGGTKVTVL
B8: No. 281 항체 (Full IgG) (antibody, V domains shown)
VH: QVQLVQSGGGLVQPGGSLRLSCAASGITVSSNYMSWVRQAPGKGLEWVSVIYSGGSTNYADSVKGRFTISRDNSKNTLYLQMNSLRAEDTAVYYCARDLIVYGMDVWGQGTTVTVSS
VL: ELVLTQPPSVSGAPGQRVTISCTGSSSNIGAGYDVHWYQQLPGTAPKLLIYGNSNRPSGVPDRFSGSKSGTSASLAITGLQAEDEADYYCAAWDDSLSGWVFGGGTKVTVL
B9: No. 217 항체 (Full IgG) (antibody, V domains shown)
VH: EVQLVESGGGVVQPGRSLRLSCAASGFTFSRFAMHWVRQAPGKGLEWVAVVSYDGSNNYYADSVKGRFTISRDNSKNTLYLQMNSLRAEDTAVYYCARGDYYGSGSYYNPSPFFDYWGQGTLVTVSS
VL: not shown
B10: No. 230 항체 (Full IgG) (antibody, V domains shown)
VH: QVQLVQSGGGVVQPGRSLRLSCAASGFTFSNFAMHWVRQAPGKGLEWVAVISYDGSNKYYADSVKGRFTISRDNFKNTLYLQMNSLRAEDTAVYYCARGDYYGSGSYYNPSPFFDYWGQGTLVTVSS
VL: not shown
B11: No. 218 항체 (Full IgG) (antibody, V domains shown)
VH: QVQLVQSGGGVVQPGRSLRLSCAASGFTFSSFAMHWVRQAPGKGLEWVAVISFDGSNKYYADSVKGQFTISRDNSKNTLYLQMNSLRAEDTAVYYCARGDYYGSGSYYNPSPFFDYWGQGTLVTVSS
VL: ELELTQPPSVSGTPGQRVSISCSGSTSNIGSNPVNWFQQLPGTAPKLLIYSNNQRPSGVPNRFSGSKSGTSASLAISGLQSDDEADYYCAAWDDSLNGWVFGGGTKVTVL

What follows are binders tested against T1, S protein of SARS-CoV-2 BetaCoV/Korea/KCDC03/2020 (614D, S형) (SARS-CoV-2, UniProt P0DTC2 14-1273) (assay: cell-based or functional assay).

Binder	IC50, PRNT [µg/mL]
B1	0.0062
B2	0.702
B3	0.401
B4	0.152
B5	0.301
B6	1.68
B7	0.272
B8	1.43
B9	5.95
B10	0.432
B11	0.562

Target: T1, S protein of SARS-CoV-2 …
Assay: cell-based or functional assay
Remark: another data set of the same source

Binder	IC50, PRNT [µg/mL]
B3	> 1

What follows are binders tested against S protein of SARS-CoV-2 hCoV-19/South Korea/KUMC17/2020 (614G) (SARS-CoV-2, UniProt P0DTC2 14-1273) (assay: cell-based or functional assay).

Binder	IC50, PRNT [µg/mL]
B3	> 1
